From the nanobody polyreactivity screen of Harvey et al. (2022)

Experiment: yeast display, Sf9 membrane polyspecificity reagent, FACS + sequencing; frameworks hold sequencing errors
In short: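 Using colony PCR, genes from sorted yeast display clones were amplified, then sequenced on MiSeq at 2 × 250 and filtered by CDR length. The clones had been stained with 10% biotinylated, detergent-solubilized Sf9 membrane reagent for 1 hour at 4 °C and sorted by FACS into low and high (top ~1%) gates on anti-HA and streptavidin fluorescence. Polyreactivity labels come from the gate of origin.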

Sequence | polyreactivity (PSR sort gate)
QVQLQESGGGLVQAGGSLRLSCAASGSIFYWPWMGWYRQAPGREREFVATITTGSNTYYADIMKGHLTISRDNARNTVYLQMKSLKPEDTAVYYCAVVGDGEIEHRYWGQGTQVTVSS | high polyreactivity
QVQLQESGGGLVQAGGSLRLSCAASGSISAVGAMGWYRQAPGKEREFAASVNWGTNTNYADSVKGRFTISRDNAKNTLNLQMNSLKPEDTAVYYCAVQPDWETRHDYWGHGTQVTVSS | low polyreactivity
QVQLQESGGGLVQAGGSLRLSCAASGSISPYYDMGWYRQAPGKEREFVAGISGGAITYYADSVKGRFTISRDNAKNTVYLQMNSLKPEDTAVYYFAADTGVYQYHSYWGQGTQVTVSS | low polyreactivity
QVQLQESGGGLVQAGGSLRLSCAASGTIFTARFMGWYRQAPGKERELVATITDGGNTNHADSVKGRFTISRDNAKNTVYLHMNSLKPEDAAVYYCAAGEVDNDTLLYWGQGSQVTVSS | low polyreactivity
QVQLQESGGGLVQAGGSLRLSCAASGTISDRAGMGWYRQAPAKNAIVANIDRGTNTNYADSVKGRFTISRDNAKNTVYLQMNSLKPEDTAVYNCAADGRYYIYLDYWGQGTQVTVSS | low polyreactivity
QVQLQESGGGLVQAGGSLRLSCAASGTISQEDWKGRYRQAPGKEREFVAAIGLGSNTNYADSLKGRFTISRDNAKNSVYLQMNSLKPEDTAVYYCAVSVWQYSDHVYRGQGTQVTVSS | low polyreactivity
QVQLQESGGGLVQAGGSLRLSCAASGTISVAAYMAWYRQAPGKEREYVASIGYGATTYYADSEKGTFTISRDNAKNTVYLQMNSLKPGDTAVYYCAVDRSPQYRYLYYWGQGTQVTVCS | high polyreactivity
QVQLQESGGGLVQAGGSLRLSCAASGTITVLYKMGWFRQAPGKEREFVASMNYGTSTYYADSVKGRFTVSRDSAKNTVYLQMNSLKPEDTAVYYCAAAYRWQDVYRYWGQGTQVTVSS | low polyreactivity
QVQLQESGGGLVQAGGSLRLSCAASGYIFPRIYMGWYRQAPGKEREFDAGISYDAITNYADSVKGRFTISLDNAKNTVYLQMNSLNPEYTAVYYCAVSYYGTPLVTYWGQGTQVTVSS | high polyreactivity
QVQLQESGGGLVQAGGSLRLSCAASGYIFVDYTMGWHRQAPGKERELVATINLGATSYYADSVKGRFTISRDNAKNTVYQQMNSLKPEDTAVYYCAVALQQVNYFPYWCQGTQVTVSS | low polyreactivity
QVQLQESGGGLVQAGGSLRLSCAASGYISAGRQMGWYRQAPGKEREFVATINGGATTNYADSVKGRFTISRDNAKNSVYLQMNSLKPEDTAVYYCAAVIWYVQDYTYWGQGAQVTVSS | high polyreactivity
QVQLQESGGGLVQAGGSLRLSCAASGYISHADEMGWNRQAPGKEHELVASISNGGSTNYADSVKGRFTISRDNAKNTVYLQMNSLKSEDTGVYYCAAWTGQVDIHYYWGQGTQVPVSS | low polyreactivity
QVQLQESGGGLVQAGGSLRLSCAASGYISHADEMGWYRQAPGKEHELVASISNGGSTNYADSVKGRFTISRDNAKNTVYLQMNSLKSEDTAVYYCAAWTGQVDIHYYWGLGTQVTVSS | low polyreactivity
QVQLQESGGGLVQAGGSLRLSCAASGYISHADEMGWYRQAPGKEHELVASISNGGSTNYADSVKGRFTISRDNAKNTVYLQRNSLKSEDTAVYYCAAWTGQVDIHYYWGQGTQVTVSS | low polyreactivity
QVQLQESGGGLVQAGGSLRLSCAASGYISQSSVMGWYRQAPGKEREFVASISYGATTYYADSVKGRYTISRDNAKDTVYLQTNSPKPEVTAVYYCAVCVKRGFSHRYWGQGTQVTVSS | high polyreactivity
QVQLQESGGGLVQAGGSLRLSCAASGYISTFSSEMGWYRQAPGKERELVASIAPGCTTSYADSVKGRFTISRDKAKNTVYLQMNILKPEDTAVYFCAVVYTVPASFGYWGQGTQVTVIS | high polyreactivity
QVQLQESGGGLVQAGGSLRLSCAASSNNTTLDVMCWYRQAPGKEREFVASIGSGGITNYADSVKGRFTISRDNAKNTVYLQMNSLKPEDTAVYYCAVLNQAYTDLIYWGQGTQVTVSS | high polyreactivity
QVQLQESGGGLVQAGGSLRLSCAATGRTFRYNTMGWYRKATGKERELVARITWSGGSTYYADSVKGRFTISRDNAKNTVYLQMNSLKPEDTAVYYCAAVPILVYRWFQSYTGDYDYWGQGTQVTVSS | low polyreactivity
QVQLQESGGGLVQAGGSLRLSCEASGTIFKYYTMGWYRQAPGKEREFVAGINVGSTTNYADIVKGRFTISRDNAKNTVYLQMNSLKPEDTAVYYCAAYFIFLYYHDYWGLGTQVTVSS | low polyreactivity
QVQLQESGGGLVQAGGSLRLSCSASGNISVTGVMGWYRQAPGKERELVPSIGIGGTTYYADSVKGRFSISRDNATITVYLQMNSLKPQDTAVYYCAARYLYYAYSYWGQGTQVTVSS | low polyreactivity
QVQLQESGGGLVQAGGSLRMSCAASGSISSRDAMGLYRQAPGKEREFVATIASGTTTYYADSVKGSFTISRDNAENTVYLQTNSLKPEDTAVYYCAAPTIQIYPFYYWGQGTQVTVSS | high polyreactivity
QVQLQESGGGLVQAGGSLRPSCAASGSLSDGVPMGWYRQAPGEERELVATTVLGATTNYADSVKGRFTISRGNAKNTVYLQMNSLKPEETAVYYCAAPLRYDKGFSYWGQGTQVTVSS | low polyreactivity

Sequence | polyreactivity (PSR sort gate)
QVQLQESGGGLVQAGGSLRQSYAASGYIFPSLAMGWYRQAPGKEREFVAAIGRGSTNNYADSLKGRFTISRDNEKNTAYQQMNSLKPEVTAVYYCAADASPLTRHLYWGQGTQVTVSS | low polyreactivity
QVQLQESGGGLVQAGGSLRRSCAATGSIFYRLKMGWHRQATGKERELVATIDPGSNTYYADSVKGSFTMSRDNAKNTVYPQMYSLKPEDTAVYYCAVSAHWTIHYYYWGQGTQVTVSS | high polyreactivity
QVQLQESGGGLVQAGGSLSLSCAASGSISAVGAMGWYRKAPGKERELAASVNWCTNTNYADSVKGRFTISRDNAKNTLYLQMNSLKPEDTAVYYCAVLPDWETRHDYWGHGTQVTVSS | low polyreactivity
QVQLQESGGGLVQAGGSPRLSCAASGTITRQYYMGWYRQAPGKERGFVAGIKSGSTTYYADNVKGCFTISRDNAKNAAYLQMNSLKPEDTAVYYCAIRPSYTIPYWYWGQGTQVTVSS | high polyreactivity
QVQLQESGGGLVQAGGSPRLSCAESDNIYPDSVICWYRQAPGKERELVATIGFGATTNYADSVKGRLTISRDNAKNTVYLQMNSLKPEDTAVYYCAADPLNYEYFCYWGQGTQVTVSS | low polyreactivity
QVQLQESGGGLVQAGGSQRLSCAASGYIFYFQYMGWYRQATGKEREFVAAISDGANTNYADSVKGRFTISRDNAKNTEYLQMNSLKPEDTAVYYCAVYADENYYFIYWGQGTQVTVSS | low polyreactivity
QVQLQESGGGLVQAGGTLRLSCAASGSFSADEDMGWYRQAQGKESEFVAGISVGGNTNYADSVKGRFTISRENAKNTVYLQINSLKPEDTAVYYCAVLQDVYDALDYWAQGTQVTVSS | high polyreactivity
QVQLQESGGGLVQAVGSLRLSCAASGNISDYYDMGWYRQAPGKERKIVAGIDFGAITNYADSVKGRFTISRDNAKNTEYLQMSSLKPEDTAVYYCAAGVYDWYAYDYWGQGTQVTVSS | high polyreactivity
QVQLQESGGGLVQEGGSLRLSCAESGNISPQADMGWYRQAPGKERELVASIGTGGTTNYADSVTGRFTISRDNAKNTVYLQMNSLKPDDTAFYYCAAVRYEYNPYDYWGQGTQVTVSS | low polyreactivity
QVQLQESGGGLVQGGGSLRLSCAASGSIYRYWYMGWYRQAPGKERELVASITEGATTNYAYSVKAALPLAAITRNTVYLQMDSMKPEDTAVYYRAASFGSTYDLVYWGQGTQVTVSS | high polyreactivity
QVQLQESGGGLVQPGGSLRLSCAASGYISSWYPMGWYPQAPGKEREFVATIAPGATTYYADSVKGRFTISRDYANNTVYLQMNSLKPEDTAVYYLAAGPENKDFYSYWCQGTQVTVSS | low polyreactivity
QVQLQESGGGLVQVGGSQRLSCAASGNIFFNYAMGWYRHAQGKEREFDASINHGTSINYEDSVKGRFTISRDNAKNTVYLQMNSLKPEDTAVYYCAADLSWTDNLFYWGQGTQVTVSS | low polyreactivity
QVQLQESGGGLVQVGVSQRLSCAASGNIFYNYAMGWYRHAQGKEREFDATINHCTSINYADSVKGLFTISRDNAKKTVYLQMNSLKPEDTAVYYCAADLSWTDNLFYWGQGTQVTVSS | low polyreactivity
QVQLQESGGGQVQAGGSLRLSCAASGYISTHYFMGWYRQAPGKDREFVAGISNGSITNYADSVKGRFTISRDNARNTVYLQMNSLKPEDTAVYYGAAFEWTYVRFGYWGQGTQVTVSG | high polyreactivity
QVQLQESGGGQVQAGGSLRWSCAASGYISTHYFMGWYRQAPGKDREFVAGISNGSITNYADSVKGRFTISRDNARNTVYLQMNSLKPEDTAVYYVAAYQWTYVRFGYWGQGTQVTVSG | high polyreactivity
QVQLQESGGHLEQSGGSLRLSCTASGTISDVRVMGWYRQAPGKERELVATISYVTITYYADSVKGRFTISRDSEKHRVSADDEPETGRYRGVLLRYYWGLGTQVTVSS | low polyreactivity
QVQLQESGGLVQAGGLRLSCAASGSVSYQEAMGWYRQAPGKERELVATISFGANTNYADSVKGRFTISRDNAKNTVYLQMNSLKPEDTAVYYCAADAYRWWVRYDYWGQGTQVTVSS | low polyreactivity
QVQLQESGGLVQAGGLRLSCAASGSVSYQEAMGWYRQAPGKERELVATISFGANTNYAESVKGRFTISRDNAKISLYLQMNSLQPEDTSLYYWAAECLFDDYYGYWGQGTQVTVSS | low polyreactivity
QVQLQESGGLVQAGGLRLSCAASGSVSYQEAMGWYRQSPGKERELVATISFGANTNYADSVKGRFTISRDNAKNTVYLQMNSLKPEDTAVYYCAAESLFDDYYGYWGQGTQVTVSS | low polyreactivity
QVQLQESGGLVQAGGSLRLSCAASGSISGRNVMGWYRQAPGKEREFVASITDGSSTNDADSVIGRFTISRDNAKNTVYLQMNSLKPKDTAVYYCAAYAHRAKSFGYWGRGTQVTVSS | low polyreactivity
QVQLQESGGRLVQAGGSLRLSCAPSGDILEADDMGWYRQAPGKERELVASITDGGSTNCADSMKGRSTICRDNAKITVYLQMNSLKPEDTAVYYCAADAWDLYSDGQEYNYWGQGTQVTVSS | high polyreactivity
QVQLQESGGSLVQAGGILRLSCAACGNIFPSAVMGWYRQALGKEREFVATINSGSYTYYADSVKVRFTISRDNAKNTVYLQMNSLKLDDSAVYYCAAYFKLPAWHTYWGQGTQVTVSS | low polyreactivity
